Results on 2 molecules are retold here after paper PMC4822319, “Quaternary structure of a G-protein-coupled receptor heterotetramer in complex with Gi and Gs” (BMC Biology, 2016).

In series [1] the target is adenosine A1 receptor fused to a hemi-Rluc8 (A1R-nRluc8) or to a hemi-Venus (A1R-nVenus) (human) (UniProt P30542).
Series [2] deals with the molecule itself. As to the kind of experiment: single-particle tracking and brightness analysis (TIRFM); living HEK-293T cells expressing A1R-GFP alone or A2AR-mCherry alone; number of receptors in a particle from the brightness distribution of the individual particles.

Chain of adenosine A1 receptor fused to a hemi-Rluc8 (A1R-nRluc8) or to a hemi-Venus (A1R-nVenus) (human) (P30542 whole entry, the tested form may be a part): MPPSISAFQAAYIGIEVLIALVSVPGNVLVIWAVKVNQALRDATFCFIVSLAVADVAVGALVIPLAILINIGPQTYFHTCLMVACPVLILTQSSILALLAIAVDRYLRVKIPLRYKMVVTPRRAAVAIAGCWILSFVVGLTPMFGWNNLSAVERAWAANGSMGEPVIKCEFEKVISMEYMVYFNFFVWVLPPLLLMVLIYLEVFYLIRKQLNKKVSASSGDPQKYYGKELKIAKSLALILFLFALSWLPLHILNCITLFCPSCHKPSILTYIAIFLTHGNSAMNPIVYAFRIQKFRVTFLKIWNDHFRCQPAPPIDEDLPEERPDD

Take “α-subunit of Gi fused to Rluc (Gi-Rluc) (from UniProt P63096 1-354) (natural protein)”: the decrease of BRETmax of the complementation BRET (A1R and A2AR fused to hemi-Rluc8 and hemi-Venus, the heterotetramer) after pertussis toxin (10 ng/ml, 16 h); endogenous Gi in series [1] was 35%.

B1: adenosine A2A receptor fused to mCherry (A2AR-mCherry) (receptor, human, UniProt P29274 1-412, looked up)
chain: MPIMGSSVYITVELAIAVLAILGNVLVCWAVWLNSNLQNVTNYFVVSLAAADIAVGVLAIPFAITISTGFCAACHGCLFIACFVLVLTQSSIFSLLAIAIDRYIAIRIPLRYNGLVTGTRAKGIIAICWVLSFAIGLTPMLGWNNCGQPKEGKNHSQGCGEGQVACLFEDVVPMNYMVYFNFFACVLVPLLLMLGVYLRIFLAARRQLKQMESQPLPGERARSTLQKEVHAAKSLAIIVGLFALCWLPLHIINCFTFFCPDCSHAPLWLMYLAIVLSHTNSVVNPFIYAYRIREFRQTFRKIIRSHVLRQQEPFKAAGTSARVLAAHGSDGEQVSLRLNGHPPGVWANGSAPHPERRPNGYALGLVSGGSAQESQGNTGLPDVELLSHELKGVCPEPPGLDDPLAQDGAGVS
notes: adenosine A2A receptor, human, UniProt P29274; The construct for single-particle tracking is not described in the main text; details may stand in Additional file 11 (Supplementary methods); also called A2A-mCherry; A2A-Cherry; source: HEK-293T, transiently transfected, on living cells; not shown: mCherry, C-terminal, kept
For orientation: stoichiometry N means a count of units in the complex or per binding partner. B1: the “stoichiometry N” value in series [2] worked out at 3.
